In patent publication US20120258119A1 (LUDWIG INSTITUTE FOR CANCER RESEARCH, published 2012):

Experiments:
[1] = target: T1, human Fibroblast Activation Protein (FAP) expressed on cells (human, UniProt Q12884 1-760); experiment: flow cytometry, serial dilutions on human FAP expressing cells (apparent KD)
T1 construct: whole, on cells; also called huFAP; human FAP
T1 sequence (looked up): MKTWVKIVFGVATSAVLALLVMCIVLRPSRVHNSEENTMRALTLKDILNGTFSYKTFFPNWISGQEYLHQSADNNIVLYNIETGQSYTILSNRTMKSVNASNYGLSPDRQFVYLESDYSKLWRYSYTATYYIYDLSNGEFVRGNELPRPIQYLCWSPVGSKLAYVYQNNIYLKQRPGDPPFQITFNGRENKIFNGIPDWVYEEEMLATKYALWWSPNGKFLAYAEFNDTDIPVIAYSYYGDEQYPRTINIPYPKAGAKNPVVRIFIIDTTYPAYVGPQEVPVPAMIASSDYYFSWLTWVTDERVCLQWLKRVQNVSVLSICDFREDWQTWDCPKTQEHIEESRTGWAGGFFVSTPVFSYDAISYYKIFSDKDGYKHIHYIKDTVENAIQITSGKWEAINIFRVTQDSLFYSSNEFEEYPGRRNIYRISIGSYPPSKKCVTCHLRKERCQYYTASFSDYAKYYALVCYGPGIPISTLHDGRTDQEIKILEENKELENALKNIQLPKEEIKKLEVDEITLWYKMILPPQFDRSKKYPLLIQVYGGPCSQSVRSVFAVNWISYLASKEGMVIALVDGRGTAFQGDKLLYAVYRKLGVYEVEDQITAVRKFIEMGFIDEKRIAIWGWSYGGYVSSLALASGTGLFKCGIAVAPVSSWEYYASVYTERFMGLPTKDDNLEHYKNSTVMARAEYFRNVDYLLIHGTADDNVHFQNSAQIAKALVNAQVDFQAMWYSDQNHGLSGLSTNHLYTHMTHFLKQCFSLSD

[2] = target: T2, human DPPIV/CD26 expressed on HEK293 cells (human, UniProt P27487 1-766); experiment: ELISA, Fab at 100 nM on plates coated with cell lysate
T2 construct: whole, on cells; also called huCD26; dipeptidyl peptidase IV

[3] = target: T3, murine FAP expressed on HEK293 cells (mouse, UniProt P97321 1-761); experiment: flow cytometry, serial dilutions on 293 muFAP+ cells (apparent KD)
T3 construct: whole, on cells; Also used as cell lysate in ELISA; also called muFAP; mouse FAP
T3 sequence (looked up): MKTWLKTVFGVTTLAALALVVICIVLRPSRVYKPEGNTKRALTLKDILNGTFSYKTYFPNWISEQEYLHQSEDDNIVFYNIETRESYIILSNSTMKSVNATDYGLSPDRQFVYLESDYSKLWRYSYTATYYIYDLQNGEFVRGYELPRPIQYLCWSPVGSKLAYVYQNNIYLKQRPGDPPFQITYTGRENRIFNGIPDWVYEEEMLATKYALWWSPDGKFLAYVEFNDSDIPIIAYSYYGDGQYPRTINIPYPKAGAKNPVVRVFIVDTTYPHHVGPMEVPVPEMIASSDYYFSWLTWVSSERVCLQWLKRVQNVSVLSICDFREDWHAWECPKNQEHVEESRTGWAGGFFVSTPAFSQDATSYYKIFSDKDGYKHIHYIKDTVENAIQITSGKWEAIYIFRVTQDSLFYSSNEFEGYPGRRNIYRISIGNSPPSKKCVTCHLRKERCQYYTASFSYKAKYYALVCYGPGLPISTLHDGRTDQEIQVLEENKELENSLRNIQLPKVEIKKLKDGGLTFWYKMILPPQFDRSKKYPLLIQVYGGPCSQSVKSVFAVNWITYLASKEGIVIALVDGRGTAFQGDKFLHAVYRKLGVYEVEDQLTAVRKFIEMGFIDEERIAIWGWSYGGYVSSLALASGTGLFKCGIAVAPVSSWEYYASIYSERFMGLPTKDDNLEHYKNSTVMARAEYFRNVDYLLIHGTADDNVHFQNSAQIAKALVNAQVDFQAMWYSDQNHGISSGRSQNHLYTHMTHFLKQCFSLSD
Experimental: The cells were then washed once with PBS, fixed for 20 min with 2% PFA on ice and bound antibody was detected with PE-conjugated anti-human IgG F(ab)′₂ (Jackson Immuno Research 109-116-097). Cells were analyzed on a FACScan (BD) cytometer and data was analysed with FlowJo. The apparent Kapp was calculated by fitting a dose-response curve using the following equitation f=Bmax*abs(x)/(Kd+abs(x))+Ns*x using SigmaPlot software (Systat Software Inc.).

[4] = target: T4, recombinant human FAP (R&D systems) (human, UniProt Q12884 26-760); experiment: SPR (BIAcore T100), Fab injected over rhuFAP on a low-density CM5 chip
T4 construct: Bought protein amine-coupled at low density on a CM5 chip for SPR; also called rhuFAP; rFAP
T4 sequence (looked up): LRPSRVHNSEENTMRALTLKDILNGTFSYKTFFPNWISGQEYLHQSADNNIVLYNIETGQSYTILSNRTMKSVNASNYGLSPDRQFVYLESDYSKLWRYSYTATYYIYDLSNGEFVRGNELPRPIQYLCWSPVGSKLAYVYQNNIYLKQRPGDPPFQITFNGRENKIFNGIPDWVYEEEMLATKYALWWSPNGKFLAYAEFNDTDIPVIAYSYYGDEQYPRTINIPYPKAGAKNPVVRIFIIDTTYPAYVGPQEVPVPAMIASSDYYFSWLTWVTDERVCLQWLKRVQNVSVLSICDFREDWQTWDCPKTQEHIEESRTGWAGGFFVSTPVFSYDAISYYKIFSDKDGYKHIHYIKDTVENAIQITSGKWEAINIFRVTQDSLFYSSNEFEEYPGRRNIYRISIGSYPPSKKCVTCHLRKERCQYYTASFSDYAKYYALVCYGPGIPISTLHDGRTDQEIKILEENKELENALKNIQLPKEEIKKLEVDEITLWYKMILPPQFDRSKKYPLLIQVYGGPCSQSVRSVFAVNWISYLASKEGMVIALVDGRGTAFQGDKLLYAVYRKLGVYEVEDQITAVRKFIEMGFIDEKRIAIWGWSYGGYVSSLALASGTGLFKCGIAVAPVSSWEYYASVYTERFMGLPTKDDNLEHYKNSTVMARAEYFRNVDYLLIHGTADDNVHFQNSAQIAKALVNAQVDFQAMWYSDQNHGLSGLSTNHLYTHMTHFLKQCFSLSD
Experimental: (§1) Binding analysis of Fabs to recombinant FAP (R&D systems) was performed on a BIAcore T100 instrument. rFAP was immobilized at low density on a CM5 sensor chip using amine coupling chemistry. […] Analysis of the binding curves and determination of rate constants was done using the nonlinear data analysis program BIAevaluation.

[5] = target: T4, recombinant human FAP (R&D systems); experiment: SPR (BIAcore), Fab 0.5-16 nM injected over rhuFAP on a CM5 chip, heterogeneous ligand model [box under the left panel]
Experimental: (§2) Purified Fabs were injected at the concentrations indicated in the figure on a rhuFAP-coated CM5 sensor chip. Values were corrected for binding to the reference flow cell. The black solid lines represent the theoretical curves for each Fab concentration calculated according to the heterogeneous ligand model and the indicated rate and affinity constants.
as §1

[6] = target: T4, recombinant human FAP (R&D systems); experiment: SPR (BIAcore), Fab 6.25-200 nM injected over rhuFAP on a CM5 chip, heterogeneous ligand model [box under the right panel]
Experimental: as §2, §1

T2 sequence (P27487 whole entry): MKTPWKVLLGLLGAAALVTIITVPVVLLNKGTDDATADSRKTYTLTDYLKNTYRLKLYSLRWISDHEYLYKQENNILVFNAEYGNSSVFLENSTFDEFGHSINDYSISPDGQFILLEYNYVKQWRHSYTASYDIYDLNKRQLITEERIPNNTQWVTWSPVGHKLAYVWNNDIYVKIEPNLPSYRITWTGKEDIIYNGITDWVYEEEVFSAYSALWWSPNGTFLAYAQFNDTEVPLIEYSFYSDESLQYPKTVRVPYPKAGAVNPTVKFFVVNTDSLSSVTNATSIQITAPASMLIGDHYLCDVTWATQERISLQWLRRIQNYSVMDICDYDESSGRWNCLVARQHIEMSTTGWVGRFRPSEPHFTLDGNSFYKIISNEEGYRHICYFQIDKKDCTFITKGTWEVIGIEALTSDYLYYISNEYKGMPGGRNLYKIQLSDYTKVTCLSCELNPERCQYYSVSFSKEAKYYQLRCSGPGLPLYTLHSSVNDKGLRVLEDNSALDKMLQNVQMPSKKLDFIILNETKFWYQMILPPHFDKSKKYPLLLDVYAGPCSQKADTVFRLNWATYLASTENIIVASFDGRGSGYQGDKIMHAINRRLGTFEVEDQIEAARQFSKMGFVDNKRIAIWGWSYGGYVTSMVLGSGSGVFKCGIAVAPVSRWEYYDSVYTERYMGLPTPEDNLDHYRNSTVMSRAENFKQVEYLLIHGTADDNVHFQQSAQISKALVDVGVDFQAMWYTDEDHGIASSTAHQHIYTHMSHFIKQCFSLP

B1: ESC11 IgG1 (antibody, V domains shown)
VH: QVQLQESGPGLVKPSETLSLTCTVSGGSISSNNYYWGWIRQTPGKGLEWIGSIYYSGSTNYNPSLKSRVTISVDTSKNQFSLKLSSVTAADTAVYYCARGARWQARPATRIDGVAFDIWGQGTMVTVSS
VL: ETTLTQSPGTLSLSPGERATLSCRASQTVTRNYLAWYQQKPGQAPRLLMYGASNRAAGVPDRFSGSGSGTDFTLTISRLEPEDFAVYYCQQFGSPYTFGQGTKVEIK
notes: Variable domains cloned into a full human IgG1 format (modified pEE12.4 vector) and produced in NS0 cells; also called ESC11 DyLight 488
[1]
  Kd: 1.1 nM

B2: ESC11 Fab fragment (Fab, V domains shown)
VH: HVQLQESGPGLVKPSETLSLTCTVSGGSISSNNYYWGWIRQTPGKGLEWIGSIYYSGSTNYNPSLKSRVTISVDTSKNQFSLKLSSVTAADTAVYYCARGARWQARPATRIDGVAFDIWGQGTMVTVSS
VL: ETTLTQSPGTLSLSPGERATLSCRASQTVTRNYLAWYQQKPGQAPRLLMYGASNRAAGVPDRFSGSGSGTDFTLTISRLEPEDFAVYYCQQFGSPYTFGQGTKVEIK
notes: Fully human Fab from a non-immunized phage library, made in E. coli TG-1, His-tag purified and detected by its myc tag; also called Fab ESC11
[2]
  binding result: no binding (tested: 100 nM)
[3]
  Kd: 51 nM
[4]
  Kd: 10 nM
[5]
  koff: 0.017 s⁻¹
  kon: 1.6e+06 M⁻¹ s⁻¹

B3: ESC14 Fab fragment (Fab, V domains shown)
VH: EVQLVQSGAEVKKPGASVKVSCKASGYTFTSYGISWVRQAPGQGLEWMGWISAYNGNTNYAQKLQGRVTMTTDTSTSTAYMELRSLRSDDTAVYYCARDWSRSGYYLPDYWGQGTLVTVSS
VL: DVVMTQSPLSLPVTLGQPASISCRSSQSLLHSNGYNYLDWYLQRPGQSPHLLIFLGSNRASGVPDRFSGSGSGTDFTLKISRVEAEDVGIYYCMQALQTPPTFGQGTKVEIK
notes: Fully human Fab from a non-immunized phage library, made in E. coli TG-1, His-tag purified and detected by its myc tag; also called Fab ESC14
[2]
  binding result: no binding (tested: 100 nM)
[3]
  Kd: 251 nM
[4]
  Kd: 210 nM
[6]
  koff: 0.125 s⁻¹
  kon: 560000 M⁻¹ s⁻¹

B4: ESC14 IgG1 (antibody, V domains shown)
VH: EVQLVQSGAEVKKPGASVKVSCKASGYTFTSYGISWVRQAPGQGLEWMGWISAYNGNTNYAQKLQGRVTMTTDTSTSTAYMELRSLRSDDTAVYYCARDWSRSGYYLPDYWGQGTLVTVSS
VL: DVVMTQSPLSLPVTLGQPASISCRSSQSLLHSNGYNYLDWYLQRPGQSPHLLIFLGSNRASGVPDRFSGSGSGTDFTLKISRVEAEDVGIYYCMQALQTPPTFGQGTKVEIK
notes: Variable domains cloned into a full human IgG1 format and produced in NS0 cells
[1]
  Kd: 1.1 nM
